Measurements published in patent US20230218743A1.
Where two headings read alike, the source gives them in different places.

Legend:
[1] = target: RBD-SD1 (SARS-CoV-2), P0DTC2; conditions: remark: other sources report otherwise
[2] = target: RBD-SD1 (SARS-CoV-2), P0DTC2; test: epitope analysis, FIG. 3B; exponent as printed; conditions: remark: other sources report otherwise

B1: N-612-004 (antibody, V domains shown)
VH: EVQLVESGGGLVQPGGSLRLSCAASGFTFSSYYMHWVRQAPGKGLEWVSAISGSGGYTYYADSVKGRFTISRDNSKNTLYLQMNSLRAEDTAVYYCARDRDHAYDWGFDVWGQGTLVTVSS
VL: DIQMTQSPSSLSASVGDRVTITCQASQDISNYLNWYQQKPGKAPKLLIYDASNLETGVPSRFSGSGSGTDFTFTISSLQPEDIATYYCQQWADWPLTFGQGTKVEIK
For B1, which Kd [1] is on record?
The Kd was 2.95 nM.

And the koff [1]?
The koff was 0.000937 s⁻¹.

What about the kon [1] of the same binder?
The kon was 317000 M⁻¹ s⁻¹.

And the koff [2]?
The koff was 0.00034 s⁻¹.
